Data as given in patent US20250388666A1 (BRIGHAM AND WOMEN S HOSPITAL, published 2025).
Several values for one entry are separate records, joined by “and”; a condition that tells them apart may be missing. Equal values may be shown once.

T1: CEACAM5 on transfected HeLa cells (UniProt P06731 35-685)
T1 construct: whole, on cells; also called C5
T1 sequence (looked up): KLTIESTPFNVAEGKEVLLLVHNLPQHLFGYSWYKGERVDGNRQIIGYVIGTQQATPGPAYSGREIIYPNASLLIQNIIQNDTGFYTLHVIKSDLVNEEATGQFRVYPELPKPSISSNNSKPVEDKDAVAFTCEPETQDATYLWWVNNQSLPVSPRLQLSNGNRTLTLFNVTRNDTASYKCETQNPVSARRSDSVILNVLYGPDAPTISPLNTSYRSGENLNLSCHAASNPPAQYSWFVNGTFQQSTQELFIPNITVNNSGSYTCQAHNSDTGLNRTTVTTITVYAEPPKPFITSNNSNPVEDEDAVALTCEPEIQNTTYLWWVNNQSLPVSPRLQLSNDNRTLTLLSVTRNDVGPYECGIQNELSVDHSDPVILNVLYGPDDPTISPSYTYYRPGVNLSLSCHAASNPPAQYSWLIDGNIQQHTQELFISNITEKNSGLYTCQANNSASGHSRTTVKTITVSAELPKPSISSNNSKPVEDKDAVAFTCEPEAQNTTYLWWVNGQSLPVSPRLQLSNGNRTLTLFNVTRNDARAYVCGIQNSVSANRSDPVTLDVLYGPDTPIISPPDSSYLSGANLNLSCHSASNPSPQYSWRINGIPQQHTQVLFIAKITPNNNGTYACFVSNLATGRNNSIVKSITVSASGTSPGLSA

T2: CEACAM1 on transfected HeLa cells (Homo sapiens (Human), UniProt P13688 35-526)
T2 construct: also called C1
T2 sequence: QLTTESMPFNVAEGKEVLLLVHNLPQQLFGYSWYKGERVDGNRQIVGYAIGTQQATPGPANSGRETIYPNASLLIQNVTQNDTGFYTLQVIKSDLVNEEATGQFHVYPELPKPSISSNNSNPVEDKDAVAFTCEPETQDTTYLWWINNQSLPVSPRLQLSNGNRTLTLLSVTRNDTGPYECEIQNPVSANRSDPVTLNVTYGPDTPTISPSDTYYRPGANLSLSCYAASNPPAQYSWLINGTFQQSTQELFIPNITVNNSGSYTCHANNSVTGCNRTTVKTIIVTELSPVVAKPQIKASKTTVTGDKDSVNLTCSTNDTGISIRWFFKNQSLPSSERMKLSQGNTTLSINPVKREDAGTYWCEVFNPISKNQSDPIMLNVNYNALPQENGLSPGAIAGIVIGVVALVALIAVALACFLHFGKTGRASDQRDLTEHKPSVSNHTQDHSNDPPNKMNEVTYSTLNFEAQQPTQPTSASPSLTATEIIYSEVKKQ

T3: CEACAM1-HIS (Sino Biologics Inc.) (Homo sapiens (Human), UniProt P13688 35-428)
T3 construct: bought; not shown: His tag
T3 sequence: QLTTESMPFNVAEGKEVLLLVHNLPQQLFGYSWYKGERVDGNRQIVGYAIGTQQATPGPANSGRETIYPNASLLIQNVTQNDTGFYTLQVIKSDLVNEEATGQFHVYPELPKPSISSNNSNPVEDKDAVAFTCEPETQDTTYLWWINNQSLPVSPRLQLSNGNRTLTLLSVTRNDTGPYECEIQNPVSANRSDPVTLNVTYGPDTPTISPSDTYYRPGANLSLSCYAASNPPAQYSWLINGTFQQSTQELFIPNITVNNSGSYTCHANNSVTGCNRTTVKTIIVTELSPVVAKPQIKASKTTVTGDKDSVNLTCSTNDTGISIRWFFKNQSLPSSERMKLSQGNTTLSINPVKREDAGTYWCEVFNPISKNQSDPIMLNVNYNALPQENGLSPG

B1: VH2 N56Q/Vκ4 S27(f)A IgG (antibody, V domains shown)
VH: EVQLLESGGGLVQPGGSLRLSCAASGFSFSDYYLYWVRQAPGKGLEWVATISVGGGQTSYADSVKGRFTISRDNSKNTLYLQMNSLRAEDTAMYYCTRGLYYGPAWFAYWGQGTLVTVSS
VL: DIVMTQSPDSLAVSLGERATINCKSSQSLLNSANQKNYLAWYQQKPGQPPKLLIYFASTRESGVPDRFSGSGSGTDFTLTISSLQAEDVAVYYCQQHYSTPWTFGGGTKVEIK
notes: IgG4 S241P, kappa; also called Parent; Parent IgG
B2: chimeric parental antibody VH0/Vκ0 (antibody, IgG4, V domains shown)
VH: EVQLVESGGGFVKPGGSLKLSCAASGFSFSDYYLYWVRQTPEKRLEWVATISVGGGNTSYPDSVKGRFTISRDNAKNNLYLQMSSLKSEDTAMYYCTRGLYYGPAWFAYWGQGTLVTVSA
VL: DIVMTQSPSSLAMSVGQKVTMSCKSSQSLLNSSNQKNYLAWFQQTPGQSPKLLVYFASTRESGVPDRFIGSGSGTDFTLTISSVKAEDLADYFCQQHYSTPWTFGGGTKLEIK
notes: IgG4 (S241P), kappa; also called Chimera; chimeric antibody

What was measured:
[1] = molecular target: T1, CEACAM5 on transfected HeLa cells; assay: flow cytometry, transfected HeLa
Description: (§1) Binding selectivity of the selected antibody variants was assessed by flow cytometry using HeLa cells transfected with vectors expressing CEACAM1, CEACAM5, and CEACAM6, respectively. The resulting cells were used for flow cytometry experiments and were cultured at 37° C., 5.0% CO₂ in Dulbecco's modified Eagle's medium supplemented with 10% fetal bovine serum, penicillin (100 U/ml) and dihydrostreptomycin ([…]). Cell lines were stained with the indicated antibodies followed by fluorochrome-conjugated monoclonal antibody specific for the indicated antibody isotypes such as human IgG4 or mouse IgG1 together with viable dye (DAPI). Data were acquired with a Cytoflex flow cytometer ([…]) and analyzed with FlowJo software (TreeStar, V7.6.5 for Windows).

[2] = molecular target: T2, CEACAM1 on transfected HeLa cells; assay: flow cytometry, transfected HeLa
Description: as §1

[3] = molecular target: T3, CEACAM1-HIS (Sino Biologics Inc.); assay: SPR single-cycle, IgG on Protein A
Method in brief: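 Single-cycle kinetics at 25° C in HBS-P+ (pH 7.4), antibodies from HEK EBNA supernatants at 1 μg/mL captured on Protein A (~100 RU). CEACAM1 injected at 3.125–50 nM (2-fold, 5 points), 150 s association, 150 s dissociation. Reference-channel and blank-run subtraction applied.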

| Binder | relative fluorescence intensity [1] | relative fluorescence intensity [2] | Kd [3] |
| --- | --- | --- | --- |
| B1 | 0 | 89.3 | – |
| B2 | 0.42 | 84.2 | 47.6 nM and 43.2 nM |
